The record followed here is article doi:10.1101/2020.01.14.906479 (bioRxiv, 2020).

Square brackets hold non-standard residues; d marks the D form. Ends that are not written are not given here. pS = N[C@@H](COP(=O)(O)O)C(=O)O

The target of the experiment is T1, recombinant Plasmodium falciparum 14-3-3I (GST-14-3-3I fusion protein) (P. falciparum 3D7, UniProt C0H4V6 1-262).
T1 sequence (looked up): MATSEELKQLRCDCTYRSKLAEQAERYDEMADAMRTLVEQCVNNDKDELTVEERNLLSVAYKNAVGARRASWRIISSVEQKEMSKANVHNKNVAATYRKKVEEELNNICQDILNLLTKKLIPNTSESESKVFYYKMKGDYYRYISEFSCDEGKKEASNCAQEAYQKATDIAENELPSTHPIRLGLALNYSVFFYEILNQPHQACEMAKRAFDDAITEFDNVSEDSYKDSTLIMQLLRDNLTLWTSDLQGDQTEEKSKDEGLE
As to the kind of experiment: ITC. In general terms: In ITC the heat of successive injections is recorded.

B1: phosphopeptide 2 (Mode II 14-3-3 recognition motif, RLYHpSLPA) (peptide)
peptide: RLYH[pS]LPA
In the case of B1, the Ka worked out at 830000 M⁻¹ and the dH is -1.52 ± 0.096 kcal/mol.

B2: phosphopeptide 1 (Mode I 14-3-3 recognition motif, ARSHpSYPA) (peptide)
peptide: ARSH[pS]YPA
Regarding B2, the Ka stood at 1.7e+06 M⁻¹ and the dH is -11.3 ± 4.27 kcal/mol.
